B1: TGF-beta2: recombinant human transforming growth factor (protein, UniProt P61812 303-414, looked up)
Transforming growth factor …: ALDAAYCFRNVQDNCCLRPLYIDFKRDLGWKWIHEPKGYNANFCAGACPYLWSSDTQHSRVLSLYNTINPEASASPCCVSQDLEPLTILYYIGKTPKIEQLSNMIVKSCKCS
modifications: Transforming growth factor beta-2
B2: LK-VRB-1s*: VEGF (1-109) variant, M18E/Y21L/Q22R/Y25S (protein)
chain: APMAEGGGQNHHEVVKFEDVLRRSSCHPIETLVDIFQEYPDEIEYIFKPSCVPLMRCGGCCNDEGLECVPTEESNITMQIMRIKPHQGQHIGEMSFLQHNKCECRPKKD

Legend:
eNOS expression = eNOS expression by Western blot in ACE cells; format: cell-based, bovine; settings: 500 pM, 2 days
Procedure: At the end of incubation, total cell lysates were prepared, and eNOS protein levels were determined by Western blot analysis.
Bovine adrenal cortex capillary endothelial cells (ACE) were prepared and maintained as previously described (Ferrara et.al., 1989 Biochem. Biophys. Res. Commun. 161:851–858). Briefly, cells were plated onto 6-well tissue culture plates (Costar) and grown in low glucose Dulbecco's modified Eagle's medium, supplemented with 2 mM […] (Life Technologies), 10% bovine calf serum (HyClone Lab., Inc.) and 100 μg/ml Penicillin/Streptomycin (Life Technologies). ACE cells were used between passages 4 and 8.
Medium was changed every 24 hours.
The methods for cell lysis and Western blot (WB) have been described in Shen et al., 1998 J. Biol. Chem. 273:29979–29985. A monoclonal anti-eNOS antibody was used at 1:2500 to probe eNOS protein. […] The protein bands were scanned by a densitometer and the relative intensities were quantified using IMAGEQUANT® software (Molecular Dynamics).
Confluent ACE cells were incubated with 500 pM rhVEGF. […] Equal amounts of protein were denatured under reducing conditions and separated in a 10% Novex mini gel and transferred to PVDF membrane. eNOS protein signals were visualized by ECL and quantified using densitometry.

KDR receptor = KDR receptor (Homo sapiens, UniProt P35968); test: KDR receptor binding ELISA (inhibition of biotinylated native VEGF (8-109) binding); settings: second figure of the cell, ratio to native VEGF (8-109)
Sequence of KDR receptor (P35968 20-327 limits assumed): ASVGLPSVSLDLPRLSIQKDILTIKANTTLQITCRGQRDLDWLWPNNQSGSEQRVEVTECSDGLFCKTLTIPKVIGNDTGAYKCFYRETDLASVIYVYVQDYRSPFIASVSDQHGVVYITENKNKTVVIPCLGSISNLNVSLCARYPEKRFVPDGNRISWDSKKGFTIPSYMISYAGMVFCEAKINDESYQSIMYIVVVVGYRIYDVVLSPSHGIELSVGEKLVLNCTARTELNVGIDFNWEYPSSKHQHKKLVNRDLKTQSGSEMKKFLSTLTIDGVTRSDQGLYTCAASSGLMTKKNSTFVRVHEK
Procedure: Receptor binding assays were performed in 96-well immunoplates (Maxisorp, Nunc-Immunoplate, Nalge Nunc International, Rochester, N.Y.). Each well was coated with 100 μl of a solution containing 8 μg/ml of a monoclonal antibody to KDR known as MAKD5 (Genentech, South San Francisco, Calif.) in 50 mM carbonate buffer at pH 9.6 and incubated at 4° C. overnight. The supernatant was discarded, the wells were washed three times in washing buffer (0.05% Tween 20 in PBS), and the plate was blocked (150 μl per well) with block buffer (0.5% BSA, 0.01% thimerosal in PBS) at room temperature for one hour. The supernatant was discarded, and the wells were washed.
Aliquots of this mixture (100 μl) were added to the precoated microtiter wells and the plate was incubated for 1 hour at room temperature. […] The wells were then incubated with 3, 3′, 5,5′-tetramethyl benzidine (0.2 gram/liter; Kirkegaard & Perry Laboratories, Gaithersburg, Md.) for about 10 minutes at room temperature. Absorbance was read at 450 nm on a Vmax plate reader (Molecular Devices, Menlo Park, Calif.).
Titration curves were fit with a four-parameter nonlinear regression curve-fitting program (KaleidaGraph, Synergy Software, Reading, Pa.).

Flt-1 receptor = Flt-1 receptor (Homo sapiens, UniProt P17948); test: RIA binding assay, FLT-1 receptor; settings: relative to Native VEGF 165
Sequence of Flt-1 receptor (P17948 27-1338): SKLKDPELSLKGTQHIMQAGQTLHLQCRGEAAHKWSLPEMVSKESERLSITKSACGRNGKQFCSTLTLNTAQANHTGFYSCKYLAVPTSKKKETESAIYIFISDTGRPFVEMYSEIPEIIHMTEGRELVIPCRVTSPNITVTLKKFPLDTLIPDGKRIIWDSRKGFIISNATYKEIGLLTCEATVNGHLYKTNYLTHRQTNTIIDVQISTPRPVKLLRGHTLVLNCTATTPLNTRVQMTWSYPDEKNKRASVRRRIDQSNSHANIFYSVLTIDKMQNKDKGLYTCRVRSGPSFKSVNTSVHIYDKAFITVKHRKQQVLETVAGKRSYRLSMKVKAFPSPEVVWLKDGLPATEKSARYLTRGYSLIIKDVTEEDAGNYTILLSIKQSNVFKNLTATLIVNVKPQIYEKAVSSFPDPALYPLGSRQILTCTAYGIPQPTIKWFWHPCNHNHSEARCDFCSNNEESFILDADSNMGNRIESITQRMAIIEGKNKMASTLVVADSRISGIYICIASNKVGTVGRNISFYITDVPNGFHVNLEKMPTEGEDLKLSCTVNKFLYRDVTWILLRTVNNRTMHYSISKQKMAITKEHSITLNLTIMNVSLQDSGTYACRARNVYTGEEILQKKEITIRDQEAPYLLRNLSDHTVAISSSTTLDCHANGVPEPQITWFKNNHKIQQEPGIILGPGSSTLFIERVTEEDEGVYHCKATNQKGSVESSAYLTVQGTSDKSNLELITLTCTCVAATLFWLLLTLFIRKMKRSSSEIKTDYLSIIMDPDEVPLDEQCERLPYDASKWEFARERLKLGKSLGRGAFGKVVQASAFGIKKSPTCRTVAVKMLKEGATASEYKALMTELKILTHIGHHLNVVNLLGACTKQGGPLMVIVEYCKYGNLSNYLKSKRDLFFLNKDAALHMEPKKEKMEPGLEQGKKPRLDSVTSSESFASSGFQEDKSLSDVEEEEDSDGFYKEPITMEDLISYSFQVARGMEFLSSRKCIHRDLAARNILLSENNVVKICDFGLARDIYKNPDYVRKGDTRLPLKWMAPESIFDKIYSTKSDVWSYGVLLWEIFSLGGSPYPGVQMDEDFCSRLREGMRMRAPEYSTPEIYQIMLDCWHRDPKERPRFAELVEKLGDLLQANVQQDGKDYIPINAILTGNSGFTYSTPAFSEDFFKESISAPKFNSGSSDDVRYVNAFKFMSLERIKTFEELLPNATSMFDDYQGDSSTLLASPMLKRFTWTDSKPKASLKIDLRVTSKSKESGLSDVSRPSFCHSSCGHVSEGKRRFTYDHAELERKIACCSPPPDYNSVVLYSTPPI
From the text: The results are shown below in Table 6.

Row | Molecule | eNOS expression with angiogenic factors (eNOS expression) | Relative Binding Affinity KDR Receptor (KDR receptor) [nM/1] | Relative Binding Affinity FLT-1 Receptor (Flt-1 receptor)
1 | B1 | reduced endogenous eNOS expression |  | 
2 | B2 |  | 1 | 14,000

Reference: patent publication US7078382B1, “Modulation of eNOS activity and therapeutic uses thereof” (Genentech, Inc., priority 1999, dated 2006)
